Reference: paper PMC4613507

Molecular target: GST-N–ezrin (GST-tagged N-terminal ezrin 1–309 aa) (UniProt P15311)
Assay: pull-down

Chain of UniProt P15311 (P15311 1-309): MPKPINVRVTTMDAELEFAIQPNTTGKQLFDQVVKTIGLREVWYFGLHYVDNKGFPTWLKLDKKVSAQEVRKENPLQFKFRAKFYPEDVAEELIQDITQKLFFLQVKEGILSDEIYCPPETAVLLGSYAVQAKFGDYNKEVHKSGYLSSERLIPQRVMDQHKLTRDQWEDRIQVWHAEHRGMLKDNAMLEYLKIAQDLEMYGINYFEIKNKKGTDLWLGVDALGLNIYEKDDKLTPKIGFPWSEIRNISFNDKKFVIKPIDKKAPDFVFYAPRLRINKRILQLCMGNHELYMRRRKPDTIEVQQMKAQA

fold higher ezrin-binding affinity than NHERF1–C127: 4 to 8 fold
Substance: His6–thioredoxin fused NHERF2–C109 (domain or fragment)
